± gives the uncertainty stated by the source.
B1: Zinc finger MYM-type protein 3, residues 405 to 444; numbered along this chain, Q14202 (parent)
chain: DATRCSICQKTGEVLHEVSNGSVVHRLCSDSCFSKFRANK

Variants of: B1
Assay: abundance fitness (aPCA) (normalised: wild type 0, dead -1); higher = more abundant; growth selection in yeast, the domain comes from the species named
Conditions: Homo sapiens

Variant | abundance fitness
DATRCSICQKTGEVLHCVSNGSVVHRLCSDSCFSKFRANK | -0.358 ± 0.081
DATRCSICQKTGEVLHDVSNGSVVHRLCSDSCFSKFRANK | -0.251 ± 0.11
DATRCSICQKTGEVLHFVSNGSVVHRLCSDSCFSKFRANK | -0.606 ± 0.091
DATRCSICQKTGEVLHGVSNGSVVHRLCSDSCFSKFRANK | -0.594 ± 0.055
DATRCSICQKTGEVLHHVSNGSVVHRLCSDSCFSKFRANK | -0.285 ± 0.097
DATRCSICQKTGEVLHIVSNGSVVHRLCSDSCFSKFRANK | -0.458 ± 0.091
DATRCSICQKTGEVLHKVSNGSVVHRLCSDSCFSKFRANK | -0.073 ± 0.06
DATRCSICQKTGEVLHLVSNGSVVHRLCSDSCFSKFRANK | -0.764 ± 0.067
DATRCSICQKTGEVLHMVSNGSVVHRLCSDSCFSKFRANK | -0.395 ± 0.088
DATRCSICQKTGEVLHNVSNGSVVHRLCSDSCFSKFRANK | -0.291 ± 0.11
DATRCSICQKTGEVLHPVSNGSVVHRLCSDSCFSKFRANK | -0.697 ± 0.086
DATRCSICQKTGEVLHRVSNGSVVHRLCSDSCFSKFRANK | -0.44 ± 0.053
DATRCSICQKTGEVLHSVSNGSVVHRLCSDSCFSKFRANK | -0.192 ± 0.057
DATRCSICQKTGEVLHTVSNGSVVHRLCSDSCFSKFRANK | -0.089 ± 0.062
DATRCSICQKTGEVLHVVSNGSVVHRLCSDSCFSKFRANK | -0.487 ± 0.058
DATRCSICQKTGEVLHWVSNGSVVHRLCSDSCFSKFRANK | -0.959 ± 0.081
DATRCSICQKTGEVLHYVSNGSVVHRLCSDSCFSKFRANK | -1.02 ± 0.23
DATRCSICQKTGEVLHEASNGSVVHRLCSDSCFSKFRANK | -0.183 ± 0.055
DATRCSICQKTGEVLHECSNGSVVHRLCSDSCFSKFRANK | -0.201 ± 0.075
DATRCSICQKTGEVLHEESNGSVVHRLCSDSCFSKFRANK | -0.15 ± 0.059
DATRCSICQKTGEVLHEFSNGSVVHRLCSDSCFSKFRANK | -0.095 ± 0.095

Variant | abundance fitness
DATRCSICQKTGEVLHEGSNGSVVHRLCSDSCFSKFRANK | -0.42 ± 0.055
DATRCSICQKTGEVLHEHSNGSVVHRLCSDSCFSKFRANK | -0.209 ± 0.1
DATRCSICQKTGEVLHEISNGSVVHRLCSDSCFSKFRANK | -0.067 ± 0.11
DATRCSICQKTGEVLHEKSNGSVVHRLCSDSCFSKFRANK | -0.267 ± 0.064
DATRCSICQKTGEVLHELSNGSVVHRLCSDSCFSKFRANK | -0.157 ± 0.053
DATRCSICQKTGEVLHEMSNGSVVHRLCSDSCFSKFRANK | -0.266 ± 0.074
DATRCSICQKTGEVLHENSNGSVVHRLCSDSCFSKFRANK | -0.358 ± 0.094
DATRCSICQKTGEVLHEPSNGSVVHRLCSDSCFSKFRANK | -0.258 ± 0.06
DATRCSICQKTGEVLHEQSNGSVVHRLCSDSCFSKFRANK | -0.243 ± 0.063
DATRCSICQKTGEVLHERSNGSVVHRLCSDSCFSKFRANK | -0.334 ± 0.055
DATRCSICQKTGEVLHEWSNGSVVHRLCSDSCFSKFRANK | -0.228 ± 0.071
DATRCSICQKTGEVLHEVANGSVVHRLCSDSCFSKFRANK | -0.215 ± 0.058
DATRCSICQKTGEVLHEVDNGSVVHRLCSDSCFSKFRANK | -0.078 ± 0.072
DATRCSICQKTGEVLHEVENGSVVHRLCSDSCFSKFRANK | 0.066 ± 0.058
DATRCSICQKTGEVLHEVFNGSVVHRLCSDSCFSKFRANK | -0.101 ± 0.11
DATRCSICQKTGEVLHEVGNGSVVHRLCSDSCFSKFRANK | -0.1 ± 0.05
DATRCSICQKTGEVLHEVHNGSVVHRLCSDSCFSKFRANK | -0.268 ± 0.08
DATRCSICQKTGEVLHEVINGSVVHRLCSDSCFSKFRANK | -0.11 ± 0.099
DATRCSICQKTGEVLHEVKNGSVVHRLCSDSCFSKFRANK | 0.176 ± 0.068
DATRCSICQKTGEVLHEVLNGSVVHRLCSDSCFSKFRANK | -0.233 ± 0.059
DATRCSICQKTGEVLHEVMNGSVVHRLCSDSCFSKFRANK | -0.12 ± 0.079

Variant | abundance fitness
DATRCSICQKTGEVLHEVNNGSVVHRLCSDSCFSKFRANK | 0.052 ± 0.091
DATRCSICQKTGEVLHEVPNGSVVHRLCSDSCFSKFRANK | 0.023 ± 0.065
DATRCSICQKTGEVLHEVQNGSVVHRLCSDSCFSKFRANK | 0.059 ± 0.065
DATRCSICQKTGEVLHEVRNGSVVHRLCSDSCFSKFRANK | -0.078 ± 0.051
DATRCSICQKTGEVLHEVTNGSVVHRLCSDSCFSKFRANK | -0.009 ± 0.068
DATRCSICQKTGEVLHEVVNGSVVHRLCSDSCFSKFRANK | -0.135 ± 0.054
DATRCSICQKTGEVLHEVYNGSVVHRLCSDSCFSKFRANK | -0.383 ± 0.15
DATRCSICQKTGEVLHEVSAGSVVHRLCSDSCFSKFRANK | -0.068 ± 0.056
DATRCSICQKTGEVLHEVSCGSVVHRLCSDSCFSKFRANK | -0.517 ± 0.11
DATRCSICQKTGEVLHEVSDGSVVHRLCSDSCFSKFRANK | 0.153 ± 0.079
DATRCSICQKTGEVLHEVSEGSVVHRLCSDSCFSKFRANK | 0.055 ± 0.053
DATRCSICQKTGEVLHEVSFGSVVHRLCSDSCFSKFRANK | -0.431 ± 0.1
DATRCSICQKTGEVLHEVSGGSVVHRLCSDSCFSKFRANK | -0.21 ± 0.052
DATRCSICQKTGEVLHEVSHGSVVHRLCSDSCFSKFRANK | -0.033 ± 0.07
DATRCSICQKTGEVLHEVSIGSVVHRLCSDSCFSKFRANK | 0.047 ± 0.096
DATRCSICQKTGEVLHEVSKGSVVHRLCSDSCFSKFRANK | -0.138 ± 0.072
DATRCSICQKTGEVLHEVSMGSVVHRLCSDSCFSKFRANK | -0.001 ± 0.072
DATRCSICQKTGEVLHEVSPGSVVHRLCSDSCFSKFRANK | -0.559 ± 0.067
DATRCSICQKTGEVLHEVSQGSVVHRLCSDSCFSKFRANK | -0.004 ± 0.059
DATRCSICQKTGEVLHEVSRGSVVHRLCSDSCFSKFRANK | -0.135 ± 0.057
DATRCSICQKTGEVLHEVSSGSVVHRLCSDSCFSKFRANK | -0.069 ± 0.06

Reference: the Human Domainome abundance scans (Beltran et al. 2025)
